Measured values from the supplement of paper PMC10598134.
± gives the standard deviation.

Assay: collision cross section of modified peptide (TIMS, N2, iRT-aligned); higher = larger / more extended gas-phase ion
Outline: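 Collision cross section values rest on the Mason-Schamp equation applied to calibrated, run-aligned mobility data from synthetic peptides. Mobility (1/K0) was calibrated with three reference ions and aligned per run to the median iRT peptide deviation, and 1–3 technical replicates of the most abundant feature per charge state were averaged. Data came from a timsTOF Pro/HT in dda-PASEF mode (nitrogen, ~2.4 mbar) after a 120-min nanoflow C18 gradient at 60 °C.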

[1] = charge state: 2, modification: Citrullination (R)
[2] = charge state: 2, modification: Acetyl (K)
[3] = charge state: 2, modification: Succinyl
[4] = charge state: 2, modification: Nitro (Y)
[5] = charge state: 3, modification: Citrullination (R)
[6] = charge state: 2, modification: Trimethyl (K)
[7] = charge state: 3, modification: Trimethyl (K)
[8] = charge state: 2, modification: Methyl (K)
[9] = charge state: 3, modification: Methyl (K)
[10] = charge state: 3, modification: HexNAc (ST)
[11] = charge state: 2, modification: HexNAc (ST)
[12] = charge state: 2, modification: Biotin
[13] = charge state: 2, modification: GlyGly (K)
[14] = charge state: 3, modification: GlyGly (K)
[15] = charge state: 3, modification: Dimethyl (K)
[16] = charge state: 2, modification: Malonyl

Substance “PLPVALQTRLAK [_PLPVALQTR(Citrullination (R))LAK_]” has a collision cross section [1] of 391.36 ± 0.54 Å².

Work on SEASSEFAKK [_SEASSEFAK(Acetyl (K))K_] yielded a collision cross section [2] of 349.46 ± 1 Å².

“VDIDAPDVSIEGPDAKLK [_VDIDAPDVSIEGPDAK(Butyryl)LK_]” showed a collision cross section (charge state: 2, modification: Butyryl) of 472.57 ± 0.49 Å².

For “DAIHFYNKSLAEHR [_DAIHFYNK(Succinyl)SLAEHR_]”, the collision cross section [3] was 453.03 Å² and the collision cross section (charge state: 3, modification: Succinyl) was 520.54 ± 0.35 Å².

“FGYVDFESAEDLEK [_FGY(Nitro (Y))VDFESAEDLEK_]” gave a collision cross section [4] of 424.66 Å².

In the case of “VQFAPEKPGPQPSAETTR [_VQFAPEKPGP(Hydroxyproline)QPSAETTR_]”, the collision cross section (charge state: 3, modification: Hydroxyproline) is reported as 515.21 ± 1.2 Å².

Substance AGRGFSLEELR [_AGR(Methyl (R))GFSLEELR_] has a collision cross section (charge state: 2, modification: Methyl (R)) of 379.24 Å² and a collision cross section (charge state: 3, modification: Methyl (R)) of 460.11 ± 2.4 Å².

For LLEEEDSKLK [_LLEEEDSK(Acetyl (K))LK_], the collision cross section [2] was 378.84 ± 0.45 Å².

Work on “LVLPSQAQARLPSGEVVK [_LVLPSQAQAR(Citrullination (R))LPSGEVVK_]” yielded a collision cross section [1] of 464.28 ± 0.94 Å² and a collision cross section [5] of 522.33 ± 4.3 Å².

Substance “ASNAAVKLAESK [_ASNAAVK(Trimethyl (K))LAESK_]” has a collision cross section [6] of 392.01 ± 0.62 Å² and a collision cross section [7] of 456.46 ± 2.4 Å².

“TQAEGQGQGRGLGLVSAVR [_TQAEGQGQGR(Citrullination (R))GLGLVSAVR_]” gave a collision cross section [5] of 549.33 ± 0.79 Å².

“GGPGSTLSFVGKR [_GGPGSTLSFVGK(Methyl (K))R_]” showed a collision cross section [8] of 391.3 ± 0.92 Å² and a collision cross section [9] of 452.34 ± 5 Å².

Work on “RLDINTNTYTSQDLK [_RLDINTNTYTS(HexNAc (ST))QDLK_]” yielded a collision cross section [10] of 511.61 ± 0.96 Å².

“LTSLNVKYNNDK [_LTSLNVK(Trimethyl (K))YNNDK_]” showed a collision cross section [6] of 406.52 ± 0.61 Å² and a collision cross section [7] of 461.22 ± 1.8 Å².

In the case of “FSAYIKNSNPALNDNLEK [_FSAYIK(Methyl (K))NSNPALNDNLEK_]”, the collision cross section [8] is reported as 493.27 Å² and the collision cross section [9] is reported as 508.45 ± 2.8 Å².

For TSAYGPPTR [_TSAY(Nitro (Y))GPPTR_], the collision cross section [4] was 326.25 ± 1.1 Å².

For FTEYETQVK [_FTEY(Nitro (Y))ETQVK_], the collision cross section [4] was 363.94 ± 0.94 Å².

For “VILENIASHEPR [_VILENIAS(HexNAc (ST))HEPR_]”, the collision cross section [11] was 443 ± 0.62 Å² and the collision cross section [10] was 492.7 ± 0.18 Å².

“SLFFGGKGAPLQR [_SLFFGGK(Trimethyl (K))GAPLQR_]” showed a collision cross section [6] of 413.8 ± 0.016 Å² and a collision cross section [7] of 456.34 ± 1.8 Å².

“IPAASAAAMNLASAR [_IPAASAAAMNLAS(HexNAc (ST))AR_]” gave a collision cross section [11] of 422.38 ± 0.62 Å².

In the case of VGEFSGANKEK [_VGEFSGANK(Succinyl)EK_], the collision cross section [3] is reported as 357.27 ± 0.73 Å².

“ATVASSTQKFQDLGVK [_ATVASSTQK(Biotin)FQDLGVK_]” gave a collision cross section [12] of 460.81 ± 1.3 Å² and a collision cross section (charge state: 3, modification: Biotin) of 516.43 ± 0.96 Å².

“LLIVSTTPYSEKDTK [_LLIVSTTPYSEK(Biotin)DTK_]” showed a collision cross section [12] of 480.64 Å².

For “GFCFITYTDEEPVKK [_GFCFITYTDEEPVK(GlyGly (K))K_]”, the collision cross section [13] was 487.35 ± 2.6 Å² and the collision cross section [14] was 525.77 Å².

For “SLKLNTAEDAK [_SLK(hydroxyisobutyryl)LNTAEDAK_]”, the collision cross section (charge state: 2, modification: hydroxyisobutyryl) was 378.64 ± 0.28 Å².

Substance “LLEQKTQESQK [_LLEQK(Dimethyl (K))TQESQK_]” has a collision cross section (charge state: 2, modification: Dimethyl (K)) of 409.09 ± 1.6 Å² and a collision cross section [15] of 453.46 ± 1.6 Å².

For VRFHNPR [_VR(Citrullination (R))FHNPR_], the collision cross section [1] was 325.95 ± 14 Å² and the collision cross section [5] was 406.17 Å².

“ISSNFSSIIAEKLR [_ISSNFSSIIAEK(GlyGly (K))LR_]” showed a collision cross section [13] of 443.53 ± 6.7 Å² and a collision cross section [14] of 502.71 ± 1.1 Å².

For TQSFSLQER [_T(HexNAc (ST))QSFSLQER_], the collision cross section [11] was 373.04 ± 0.83 Å².

“GTISAPGKVVTAAAQAK [_GTISAPGK(Malonyl)VVTAAAQAK_]” gave a collision cross section [16] of 432.93 ± 5.1 Å² and a collision cross section (charge state: 3, modification: Malonyl) of 519.93 ± 1.9 Å².

Work on “SRGAIISQYYNR [_SR(Citrullination (R))GAIISQYYNR_]” yielded a collision cross section [1] of 408.9 ± 1.3 Å² and a collision cross section [5] of 483.76 Å².

Work on “TQAYQDQKPGTSGLR [_TQAYQDQK(Dimethyl (K))PGTSGLR_]” yielded a collision cross section [15] of 464.17 ± 1.6 Å².

“SGNLTEDDKHNNAK [_SGNLTEDDK(Malonyl)HNNAK_]” gave a collision cross section [16] of 417.21 ± 1.6 Å².
